Results published in IntAct's records for PubMed 29892012.

B1: Late cornified envelope protein 1B (Homo sapiens), Q5T7P3 (parent)
chain: MSCQQNQQQCQPPPKCIPKCPPKCLTPRCPPKCPPKCPPVSSCCSVSSGGCCGSSSGGSCGSSSGGCCSSGGGGCCLSHHRRRRSHCHRPQSSGCCSQPSGGSSCCGGGSGQHSGGCC
partner: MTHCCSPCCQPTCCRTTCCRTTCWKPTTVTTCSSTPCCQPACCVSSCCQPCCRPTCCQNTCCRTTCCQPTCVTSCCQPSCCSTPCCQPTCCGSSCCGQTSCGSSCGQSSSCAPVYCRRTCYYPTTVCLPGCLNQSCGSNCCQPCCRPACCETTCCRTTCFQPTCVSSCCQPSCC
B2: Forkhead box protein P3 (Homo sapiens), Q9BZS1 (parent)
chain: MPNPRPGKPSAPSLALGPSPGASPSWRAAPKASDLLGARGPGGTFQGRDLRGGAHASSSSLNPMPPSQLQLPTLPLVMVAPSGARLGPLPHLQALLQDRPHFMHQLSTVDAHARTPVLQVHPLESPAMISLTPPTTATGVFSLKARPGLPPGINVASLEWVSREPALLCTFPNPSAPRKDSTLSAVPQSSYPLLANGVCKWPGCEKVFEEPEDFLKHCQADHLLDEKGRAQCLLQREMVQSLEQQLVLEKEKLSAMQAHLAGKMALTKASSVASSDKGSCCIVAAGSQGPVVPAWSGPREAPDSLFAVRRHLWGSHGNSTFPEFLHNMDYFKFHNMRPPFTYATLIRWAILEAPEKQRTLNEIYHWFTRMFAFFRNHPATWKNAIRHNLSLHKCFVRVESEKGAVWTVDELEFRKKRSQRPSRCSNPTPGP
B3: Melanoma-associated antigen 8 (Homo sapiens), P43361 (parent)
chain: MLLGQKSQRYKAEEGLQAQGEAPGLMDVQIPTAEEQKAASSSSTLIMGTLEEVTDSGSPSPPQSPEGASSSLTVTDSTLWSQSDEGSSSNEEEGPSTSPDPAHLESLFREALDEKVAELVRFLLRKYQIKEPVTKAEMLESVIKNYKNHFPDIFSKASECMQVIFGIDVKEVDPAGHSYILVTCLGLSYDGLLGDDQSTPKTGLLIIVLGMILMEGSRAPEEAIWEALSVMGLYDGREHSVYWKLRKLLTQEWVQENYLEYRQAPGSDPVRYEFLWGPRALAETSYVKVLEHVVRVNARVRISYPSLHEEALGEEKGV
partner: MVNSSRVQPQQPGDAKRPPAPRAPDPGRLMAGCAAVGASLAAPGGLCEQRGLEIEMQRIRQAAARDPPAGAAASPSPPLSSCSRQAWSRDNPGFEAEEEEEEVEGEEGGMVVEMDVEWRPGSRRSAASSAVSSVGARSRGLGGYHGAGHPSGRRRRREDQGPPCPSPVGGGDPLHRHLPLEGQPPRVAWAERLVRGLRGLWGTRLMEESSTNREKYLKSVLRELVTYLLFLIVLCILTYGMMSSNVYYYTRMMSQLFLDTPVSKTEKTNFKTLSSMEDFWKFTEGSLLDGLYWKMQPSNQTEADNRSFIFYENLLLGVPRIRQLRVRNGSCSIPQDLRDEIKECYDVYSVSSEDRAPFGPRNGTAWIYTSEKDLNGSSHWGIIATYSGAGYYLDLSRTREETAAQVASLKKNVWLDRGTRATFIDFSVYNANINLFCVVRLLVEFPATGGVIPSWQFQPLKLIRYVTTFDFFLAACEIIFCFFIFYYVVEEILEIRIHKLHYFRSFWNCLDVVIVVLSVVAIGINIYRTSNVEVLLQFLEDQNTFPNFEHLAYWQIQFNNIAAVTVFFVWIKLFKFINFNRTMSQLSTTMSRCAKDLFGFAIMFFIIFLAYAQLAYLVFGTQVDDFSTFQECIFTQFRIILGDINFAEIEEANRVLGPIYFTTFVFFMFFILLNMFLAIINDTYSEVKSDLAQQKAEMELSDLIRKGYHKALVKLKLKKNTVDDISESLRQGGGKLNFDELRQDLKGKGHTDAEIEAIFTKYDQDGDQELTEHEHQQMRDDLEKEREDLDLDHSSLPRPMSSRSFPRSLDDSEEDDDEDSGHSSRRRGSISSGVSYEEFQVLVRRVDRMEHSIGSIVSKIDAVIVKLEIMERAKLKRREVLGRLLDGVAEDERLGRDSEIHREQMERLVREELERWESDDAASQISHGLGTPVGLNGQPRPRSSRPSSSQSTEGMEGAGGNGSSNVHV
B4: RNA-binding protein 3 (Homo sapiens), P98179 (parent)
chain: MSSEEGKLFVGGLNFNTDEQALEDHFSSFGPISEVVVVKDRETQRSRGFGFITFTNPEHASVAMRAMNGESLDGRQIRVDHAGKSARGTRGGGFGAHGRGRSYSRGGGDQGYGSGRYYDSRPGGYGYGYGRSRDYNGRNQGGYDRYSGGNYRDNYDN
partner: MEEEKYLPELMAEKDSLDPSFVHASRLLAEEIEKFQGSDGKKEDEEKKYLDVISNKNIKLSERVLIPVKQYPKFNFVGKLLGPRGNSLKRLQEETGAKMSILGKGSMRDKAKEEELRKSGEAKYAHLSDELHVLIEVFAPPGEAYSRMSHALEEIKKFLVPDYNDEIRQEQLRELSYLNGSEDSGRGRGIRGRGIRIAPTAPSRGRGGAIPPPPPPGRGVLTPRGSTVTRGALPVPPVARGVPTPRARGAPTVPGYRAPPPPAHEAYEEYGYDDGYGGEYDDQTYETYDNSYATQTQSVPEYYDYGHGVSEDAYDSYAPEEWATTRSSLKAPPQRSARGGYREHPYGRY
B5: Late cornified envelope protein 1B (Homo sapiens), Q5T7P3 (parent)
chain: B1 chain
partner: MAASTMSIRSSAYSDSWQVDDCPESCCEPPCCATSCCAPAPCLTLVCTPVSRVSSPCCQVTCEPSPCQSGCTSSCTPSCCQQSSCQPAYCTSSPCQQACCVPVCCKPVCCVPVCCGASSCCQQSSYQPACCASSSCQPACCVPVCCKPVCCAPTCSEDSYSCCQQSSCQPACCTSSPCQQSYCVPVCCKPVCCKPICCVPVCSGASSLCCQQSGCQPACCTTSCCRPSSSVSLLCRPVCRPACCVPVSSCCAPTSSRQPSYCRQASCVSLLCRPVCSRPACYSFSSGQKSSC
B6: Melanoma-associated antigen 8 (Homo sapiens), P43361 (parent)
chain: B3 chain

Variants of: B1
Conditions: with kra92_human KRTAP9-2, Q9BYQ4

| effect of a mutation on the interaction | Variant |
| --- | --- |
| disrupting interaction strength | MSCQQNQQQCQPPPKYIPKCPPKCLTPRCPPKCPPKCPPVSSCCSVSSGGCCGSSSGGSCGSSSGGCCSSGGGGCCLSHHRRRRSHCHRPQSSGCCSQPSGGSSCCGGGSGQHSGGCC [C16Y] |

Variants of: B2
Conditions: with pr20e_human PRR20E

| effect of a mutation on the interaction | Variant |
| --- | --- |
| with no effect | MPNPRPGKPSAPSLALGPSPGASPSWRAAPKASDLLGARGPGGTFQGRDLRGGAHASSSSLNPMPPSQLQLPTLPLVMVAPSGARLGPLPHLQALLQDRPHFMHQLSMVDAHARTPVLQVHPLESPAMISLTPPTTATGVFSLKARPGLPPGINVASLEWVSREPALLCTFPNPSAPRKDSTLSAVPQSSYPLLANGVCKWPGCEKVFEEPEDFLKHCQADHLLDEKGRAQCLLQREMVQSLEQQLVLEKEKLSAMQAHLAGKMALTKASSVASSDKGSCCIVAAGSQGPVVPAWSGPREAPDSLFAVRRHLWGSHGNSTFPEFLHNMDYFKFHNMRPPFTYATLIRWAILEAPEKQRTLNEIYHWFTRMFAFFRNHPATWKNAIRHNLSLHKCFVRVESEKGAVWTVDELEFRKKRSQRPSRCSNPTPGP [T108M] |

Variants of: B2
Conditions: with rbpms_human RBPMS

| effect of a mutation on the interaction | Variant |
| --- | --- |
| with no effect | MPNPRPGKPSAPSLALGPSPGASPSWRAAPKASDLLGARGPGGTFQGRDLRGGAHASSSSLNPMPPSQLQLPTLPLVMVAPSGARLGPLPHLQALLQDRPHFMHQLSMVDAHARTPVLQVHPLESPAMISLTPPTTATGVFSLKARPGLPPGINVASLEWVSREPALLCTFPNPSAPRKDSTLSAVPQSSYPLLANGVCKWPGCEKVFEEPEDFLKHCQADHLLDEKGRAQCLLQREMVQSLEQQLVLEKEKLSAMQAHLAGKMALTKASSVASSDKGSCCIVAAGSQGPVVPAWSGPREAPDSLFAVRRHLWGSHGNSTFPEFLHNMDYFKFHNMRPPFTYATLIRWAILEAPEKQRTLNEIYHWFTRMFAFFRNHPATWKNAIRHNLSLHKCFVRVESEKGAVWTVDELEFRKKRSQRPSRCSNPTPGP [T108M] |

Variants of: B3
Conditions: with pkd2_human PKD2, Q13563

| effect of a mutation on the interaction | Variant |
| --- | --- |
| disrupting interaction strength | MLLGQKSQRYKAEEGLQAQGEAPGLMDVQIPTAEEQKAASSSSTLIMGTLEEVTDSGSPSPPQSPEGASSSLTVTDSTLWSQSDEGSSSNEEEGPSTSPDPAHLESLFREALDEKVAELVRFLLRKYQIKEPVTKAEMLESVIKNYKNHFPDIFSKASECMQVIFGIDVKEVDPAGHSYILVTCLGLSYDGLLGDDQSTPKTGLLIIVLGMILMEGSCAPEEAIWEALSVMGLYDGREHSVYWKLRKLLTQEWVQENYLEYRQAPGSDPVRYEFLWGPRALAETSYVKVLEHVVRVNARVRISYPSLHEEALGEEKGV [R218C] |

Variants of: B4
Conditions: with khdr2_human KHDRBS2, Q5VWX1

| effect of a mutation on the interaction | Variant |
| --- | --- |
| with no effect | MSSEEGKLFVGGLNFNTDEQALEDHFSSFGPISEVVVVKDRETQRSRGFGFITFTNPEHASVAMRAMNGESLDGRQIRVDHAGKSARGTRGGGFGAHGRGRSYSRGGGDQGYGSGRYYDSRPGGYGYGYGRSRDYNGRNQGGYDHYSGGNYRDNYDN [R145H] |

Variants of: B5
Conditions: with kr109_human KRTAP10-9, P60411

| effect of a mutation on the interaction | Variant |
| --- | --- |
| disrupting interaction strength | MSCQQNQQQCQPPPKYIPKCPPKCLTPRCPPKCPPKCPPVSSCCSVSSGGCCGSSSGGSCGSSSGGCCSSGGGGCCLSHHRRRRSHCHRPQSSGCCSQPSGGSSCCGGGSGQHSGGCC [C16Y] |

Variants of: B6
Conditions: with bex5_human BEX5, Q5H9J7
Sequence of bex5_human BEX5, Q5H9J7 (Q5H9J7 whole entry): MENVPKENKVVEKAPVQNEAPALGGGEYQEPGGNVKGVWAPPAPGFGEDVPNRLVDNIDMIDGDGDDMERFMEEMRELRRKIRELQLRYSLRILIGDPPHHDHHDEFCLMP

| effect of a mutation on the interaction | Variant |
| --- | --- |
| with no effect | MLLGQKSQRYKAEEGLQAQGEAPGLMDVQIPTAEEQKAASSSSTLIMGTLEEVTDSGSPSPPQSPEGASSSLTVTDSTLWSQSDEGSSSNEEEGPSTSPDPAHLESLFREALDEKVAELVRFLLRKYQIKEPVTKAEMLESVIKNYKNHFPDIFSKASECMQVIFGIDVKEVDPAGHSYILVTCLGLSYDGLLGDDQSTPKTGLLIIVLGMILMEGSCAPEEAIWEALSVMGLYDGREHSVYWKLRKLLTQEWVQENYLEYRQAPGSDPVRYEFLWGPRALAETSYVKVLEHVVRVNARVRISYPSLHEEALGEEKGV [R218C] |
